Experiments:
Assay in all cases: SPR
Conditions in all cases: both partners purified
PfHsp70-1_(G632-664) = PfHsp70-1_(G632-664) (Plasmodium falciparum 3D7, UniProt Q8IB24 1-677, 632[…]664 to 632[…]664)
[1] = target: T1, Plasmodium falciparum Hsp70-1 (PfHsp70-1), wild type (Plasmodium falciparum 3D7, UniProt Q8IB24 1-677)
T1 construct: PfHsp70-1, cytosolic Hsp70 of Plasmodium falciparum 3D7, NCBI XP_001349336.1; called the full length PfHsp70-1 protein; pQE30 vector with N-terminal (His)6-tag; also called WT; wild type PfHsp70-1

PfHsp70-1_(G632) = PfHsp70-1_(G632) (Plasmodium falciparum 3D7, UniProt Q8IB24 1-677, 632GGMPGGMP639 to 632AALAAALA639)
PfHsp70-1_(G648) = PfHsp70-1_(G648) (Plasmodium falciparum 3D7, UniProt Q8IB24 1-677, 648[…]657 to 648[…]657)
PfHsp70-1∆G = PfHsp70-1∆G (Plasmodium falciparum 3D7, UniProt Q8IB24 1-677, deletion of residues 632-664)

Measured: binding result

B1: Plasmodium falciparum Hsp70-Hsp90 organising protein (PfHop) (natural protein, UniProt Q8ILC1 1-564, looked up)
chain: MVNKEEAQRLKELGNKCFQEGKYEEAVKYFSDAITNDPLDHVLYSNLSGAFASLGRFYEALESANKCISIKKDWPKGYIRKGCAEHGLRQLSNAEKTYLEGLKIDPNNKSLQDALSKVRNENMLENAQLIAHLNNIIENDPQLKSYKEENSNYPHELLNTIKSINSNPMNIRIILSTCHPKISEGVEKFFGFKFTGEGNDAEERQRQQREEEERRKKKEEEERKKKEEEEMKKQNRTPEQIQGDEHKLKGNEFYKQKKFDEALKEYEEAIQINPNDIMYHYNKAAVHIEMKNYDKAVETCLYAIENRYNFKAEFIQVAKLYNRLAISYINMKKYDLAIEAYRKSLVEDNNRATRNALKELERRKEKEEKEAYIDPDKAEEHKNKGNEYFKNNDFPNAKKEYDEAIRRNPNDAKLYSNRAAALTKLIEYPSALEDVMKAIELDPTFVKAYSRKGNLHFFMKDYYKALQAYNKGLELDPNNKECLEGYQRCAFKIDEMSKSEKVDEEQFKKSMADPEIQQIISDPQFQIILQKLNENPNSISEYIKDPKIFNGLQKLIAAGILKVR
notes: PfHop, Hsp70-Hsp90 organising protein of Plasmodium falciparum
binds: PfHsp70-1_(G632-664) | [1] | PfHsp70-1_(G632) | PfHsp70-1_(G648) | PfHsp70-1∆G

— PMC7926355, “Mutation of GGMP Repeat Segments of Plasmodium falciparum Hsp70-1 Compromises Chaperone Function and Hop Co-Chaperone Binding” (International Journal of Molecular Sciences, 2021)
